Sequences and labels used below:
T1: human IL-12Rβ2, Acro (BLI analyte) (human, UniProt Q99665 24-622, limits assumed)
T1 sequence (looked up): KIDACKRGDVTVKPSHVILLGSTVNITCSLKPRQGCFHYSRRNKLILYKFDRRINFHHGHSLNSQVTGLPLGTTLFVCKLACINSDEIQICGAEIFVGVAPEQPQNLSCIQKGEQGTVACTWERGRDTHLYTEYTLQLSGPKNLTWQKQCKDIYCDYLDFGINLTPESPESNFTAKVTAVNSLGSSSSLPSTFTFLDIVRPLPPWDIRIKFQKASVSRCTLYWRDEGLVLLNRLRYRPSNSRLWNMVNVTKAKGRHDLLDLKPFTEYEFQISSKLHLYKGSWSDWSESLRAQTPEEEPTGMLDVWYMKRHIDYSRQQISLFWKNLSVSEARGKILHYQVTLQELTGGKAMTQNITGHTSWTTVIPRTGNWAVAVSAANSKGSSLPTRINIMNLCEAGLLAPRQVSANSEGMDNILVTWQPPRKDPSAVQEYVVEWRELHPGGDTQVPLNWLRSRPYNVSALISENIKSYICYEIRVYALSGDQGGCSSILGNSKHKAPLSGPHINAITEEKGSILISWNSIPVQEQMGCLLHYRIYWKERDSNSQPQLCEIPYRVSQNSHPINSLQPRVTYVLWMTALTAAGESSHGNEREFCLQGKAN

B1: DGL569 (bispecific antibody, V domains shown)
V domain 1: QVQLVESGGGLVQAGGSLRLSCAASRSISSFNEMAWYRQAPGEQRELVATIVSTVGFTNYADSVKGRFTISRDNAKNTVYLQMNSLKAEDTAVYYCNARRISTDYWGQGTQVTVEP
V domain 2: QVQLVESGGGLVQPGGSLRLSCAASGFTFSNYAMSWVRQAPGKGLEWVSAINSDGTSTSYADSVKGQFTISRDNAKNTLYLQMNSLKPEDTAVYYCTKWEGDTDSDYKFKDYWGQGTQVTVEP
notes: 233B1 x 19B2
B2: DGL572 (bispecific antibody, V domains shown)
V domain 1: B1 V domain 1
V domain 2: QVQLVESGGGLVQPGGSLRLSCAASGFTFEPYDMSWFRQAPGKGPEWVSAIDKGGGAGATYYADSVKGRFTISRDNAKKTLYLQMKSLKPEDTAVYYCAITAGPYSDSTPRVAYRGEGTQVTVEP
notes: 233B1 x 93B2
B3: DGL495 (bispecific antibody, V domains shown)
V domain 1: EVQLVESGGGLVQAGGSLRLSCAASGLTFRNYAMAWFRQAPGKEREFVAGITWGGGLTHYVDSVKGRFTISRDNGKNTVYLQMNSLKSEDTAVYYCAGKTQGSTWYHLTPDGYDYWGQGTQVTVEP
V domain 2: B1 V domain 2
B4: DGL481 (bispecific antibody, V domains shown)
V domain 1: QVQLVESGGGLVQAGGSLRLSCAASARIFNSYAVAWFRQTPGKEREFVASISWSGGSTNYADSVKGRFTISRDNAKNTVFLQMNSLKPADTAVYYCAADRNYYPSVLGKYTYWGQGTQVTVEP
V domain 2: B1 V domain 2
notes: 67B1 x 19B2
B5: DGL516 (bispecific antibody, V domains shown)
V domain 1: QVQLVESGGGLAQAGGSLRLSCAASGRTFSNDDMAWFRQAPGKEREFVAHIDRNAASTNYADSVKGRFTISRDNAKNTVYLQMTRLKPEDTAVYYCAADPDHFGTTWYQQYTYWGPGTQVTVEP
V domain 2: B2 V domain 2
notes: 97B1 x 93B2
B6: DGL424 (bispecific antibody, human IgG1, lambda)
heavy 1: not shown
heavy 2: QVTLRESGPALVKPTQTLTLTCTFSGFSLSTSGMCVSWIRQPPGKALEWLALIYWDDDKYYSTSLKTRLTISKDTSKNQVVLTMTNMDPVDTATYYCARMRRGIEAFDIWGQGTMVTVFSASTKGPSVFPLAPSSKSTSGGTAALGCLVKDYFPEPVTVSWNSGALTSGVHTFPAVLQSSGLYSLSSVVTVPSSSLGTQTYICNVNHKPSNTKVDKKVEPKSCDKTHTCPPCPAPEAAGAPSVFLFPPKPKDTLMISRTPEVTCVVVDVSHEDPEVKFNWYVDGVEVHNAKTKPREEQYNSTYRVVSVLTVLHQDWLNGKEYKCKVSNKALPAPIEKTISKAKGQPREPQVCTLPPSRDELTKNQVSLSCAVKGFYPSDIAVEWESNGQPENNYKTTPPVLDSDGSFFLVSKLTVDKSRWQQGNVFSCSVMHEALHNRFTQKSLSLSPG
light: QSVLTQPPSVSGAPGQRVTISCTGSSSNIGAGYDVHWYQQLPGTAPKLLIFGYSNRPSGVPVRFSGSKSGTSASLAITGLLAEDEADFYCQSFDISLTGWVFGGGTKLTVLGQPKAAPSVTLFPPSSEELQANKATLVCLISDFYPGAVTVAWKADSSPVKAGVETTTPSKQSNNKYAASSYLSLTPEQWKSHRSYSCQVTHEGSTVEKTVAPTECS
notes: 54B1 x 85802_10K12A

In the first assay the target is human IL-12 receptor (IL-12Rβ1 and IL-12Rβ2) on HEK-Blue IL-12 cells (human, UniProt P42701 24-662; Q99665 24-862). Nature of the assay: cell-based or functional assay.
B1: the EC50 was 5.2e-09 M (implied) and the “Max Absorbance” value was 1.19.

B2: the concentration giving a half-maximal response (EC50) was 1.2e-08 M (implied) and the “Max Absorbance” value is 1.05.

Regarding B3, the concentration giving a half-maximal response (EC50) was 6.4e-10 M (implied) and the “Max Absorbance” value was 0.96.

Take B4: the EC50 was 3.3e-10 M (implied) and the “Max Absorbance” value was 0.93.

Take B5: the half-maximal effective concentration (EC50) is 6.5e-11 M (implied) and the “Max Absorbance” value amounted to 1.05.

B6: the 50% effective concentration (EC50) was 2.6e-10 M (implied) and the “Max Absorbance” value was 1.49.

For another assay, the target named is T1, human IL-12Rβ2, Acro (BLI analyte). The experiment in a line: BLI (Octet), antibody on AHC tip.
In turn, B1 had a Kd of 0.723 nM.

Molecule B2 yielded a Kd of 2.41 nM. This Kd lies about 3.3-fold higher than the previous one.

B3 returned a Kd of 0.77 nM.

As for B4, the Kd was found to be 0.772 nM.

As for B5, the equilibrium dissociation constant (Kd) is 3.41 nM. Compared with the last molecule, the Kd is about 4.4-fold higher.

For B6, binding was characterised by a dissociation constant (Kd) of 0.726 nM.

In another assay the target is human IL-12Rβ1, Acro (BLI analyte) (human, UniProt P42701 24-545). Nature of the assay: BLI (Octet), antibody on AHC tip.
The molecule B1 displayed a dissociation constant Kd of 1.7 nM.

With B2, the affinity, expressed as Kd, was 1.48 nM.

Turning to B3, the dissociation constant Kd is 10.7 nM.

As for B4, the Kd turned out to be 7.17 nM. The Kd values of the last two molecules are within 1.5-fold of each other.

Molecule B5 registered a dissociation constant (Kd) of 27.3 nM.
